Literature values, collected in paper PMC3423339.

Target: Alk1 (Homo sapiens) (UniProt P37023)
Sequence of UniProt P37023 (P37023 22-118): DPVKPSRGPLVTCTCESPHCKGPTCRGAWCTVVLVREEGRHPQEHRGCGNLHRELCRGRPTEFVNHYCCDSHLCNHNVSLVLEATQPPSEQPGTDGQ

BMP9 (from UniProt Q9UK05)
Kd: 1 pM
